According to patent US20200297818A1 (ZEALAND PHARMA A S, published 2020):

T1: human GLP-2 receptor (hGLP2-R) (human, UniProt O95838 1-553)
T1 sequence (looked up): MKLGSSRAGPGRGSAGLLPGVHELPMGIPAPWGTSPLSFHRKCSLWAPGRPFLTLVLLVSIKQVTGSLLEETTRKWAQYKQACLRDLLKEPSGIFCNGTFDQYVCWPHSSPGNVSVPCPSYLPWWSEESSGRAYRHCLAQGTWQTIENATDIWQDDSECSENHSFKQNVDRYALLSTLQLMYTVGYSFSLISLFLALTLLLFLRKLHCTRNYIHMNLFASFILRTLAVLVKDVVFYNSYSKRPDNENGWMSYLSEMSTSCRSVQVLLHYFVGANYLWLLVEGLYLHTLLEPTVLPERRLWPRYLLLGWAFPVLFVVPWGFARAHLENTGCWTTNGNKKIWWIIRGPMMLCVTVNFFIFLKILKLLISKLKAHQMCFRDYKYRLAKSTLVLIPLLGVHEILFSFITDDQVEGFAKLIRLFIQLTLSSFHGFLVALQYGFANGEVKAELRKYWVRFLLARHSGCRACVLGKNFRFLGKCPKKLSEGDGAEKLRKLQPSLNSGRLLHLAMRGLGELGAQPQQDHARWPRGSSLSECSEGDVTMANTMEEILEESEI


Assays:
[1] = biological target: human glucagon-like peptide 1 receptor (GLP-1 R) (human, UniProt P43220 24-463); experiment: cell-based or functional assay
[2] = biological target: T1, human GLP-2 receptor (hGLP2-R); experiment: cell-based or functional assay

EC50 GLP-1 (nM); cAMP response [1] [nM]	EC50 GLP-2 (nM); cAMP response [2] [nM]	Binder
0.19	0.21	HXEGSFTSELATILDXQAARDFIAWLIQHKITD (HELM PEPTIDE1{H.[Aib].E.G.S.F.T.S.E.L.A.T.I.L.D.K.Q.A.A.R.D.F.I.A.W.L.I.Q.H.K.I.T.D}|PEPTIDE2{[O=C(O)CCCCCCCCCCCCCCCCC(=O)[*:2]].[gGlu]}$PEPTIDE1,PEPTIDE2,16:R3-2:R2$$$V2.0; SMILES CC[C@H](C)[C@H](NC(=O)[C@H](Cc1ccccc1)NC(=O)[C@H](CC(=O)O)NC(=O)[C@H](CCCNC(=N)N)NC(=O)[C@H](C)NC(=O)[C@H](C)NC(=O)[C@H](CCC(N)=O)NC(=O)[C@H](CCCCNC(=O)CC[C@H](NC(=O)CCCCCCCCCCCCCCCCC(=O)O)C(=O)O)NC(=O)[C@H](CC(=O)O)NC(=O)[C@H](CC(C)C)NC(=O)[C@@H](NC(=O)[C@@H](NC(=O)[C@H](C)NC(=O)[C@H](CC(C)C)NC(=O)[C@H](CCC(=O)O)NC(=O)[C@H](CO)NC(=O)[C@@H](NC(=O)[C@H](Cc1ccccc1)NC(=O)[C@H](CO)NC(=O)CNC(=O)[C@H](CCC(=O)O)NC(=O)C(C)(C)NC(=O)[C@@H](N)Cc1c[nH]cn1)[C@@H](C)O)[C@@H](C)O)[C@@H](C)CC)C(=O)N[C@@H](C)C(=O)N[C@@H](Cc1c[nH]c2ccccc12)C(=O)N[C@@H](CC(C)C)C(=O)N[C@H](C(=O)N[C@@H](CCC(N)=O)C(=O)N[C@@H](Cc1c[nH]cn1)C(=O)N[C@@H](CCCCN)C(=O)N[C@H](C(=O)N[C@H](C(=O)N[C@@H](CC(=O)O)C(=O)O)[C@@H](C)O)[C@@H](C)CC)[C@@H](C)CC) [Compound 18]
0.55	0.37	HXEGTFSSELATILDXQAARDFIAWLIEHKITD (HELM PEPTIDE1{H.[Aib].E.G.T.F.S.S.E.L.A.T.I.L.D.K.Q.A.A.R.D.F.I.A.W.L.I.E.H.K.I.T.D}|PEPTIDE2{[O=C(O)CCCCCCCCCCCCCCCCC(=O)[*:2]].[gGlu]}$PEPTIDE1,PEPTIDE2,16:R3-2:R2$$$V2.0; SMILES CC[C@H](C)[C@H](NC(=O)[C@H](Cc1ccccc1)NC(=O)[C@H](CC(=O)O)NC(=O)[C@H](CCCNC(=N)N)NC(=O)[C@H](C)NC(=O)[C@H](C)NC(=O)[C@H](CCC(N)=O)NC(=O)[C@H](CCCCNC(=O)CC[C@H](NC(=O)CCCCCCCCCCCCCCCCC(=O)O)C(=O)O)NC(=O)[C@H](CC(=O)O)NC(=O)[C@H](CC(C)C)NC(=O)[C@@H](NC(=O)[C@@H](NC(=O)[C@H](C)NC(=O)[C@H](CC(C)C)NC(=O)[C@H](CCC(=O)O)NC(=O)[C@H](CO)NC(=O)[C@H](CO)NC(=O)[C@H](Cc1ccccc1)NC(=O)[C@@H](NC(=O)CNC(=O)[C@H](CCC(=O)O)NC(=O)C(C)(C)NC(=O)[C@@H](N)Cc1c[nH]cn1)[C@@H](C)O)[C@@H](C)O)[C@@H](C)CC)C(=O)N[C@@H](C)C(=O)N[C@@H](Cc1c[nH]c2ccccc12)C(=O)N[C@@H](CC(C)C)C(=O)N[C@H](C(=O)N[C@@H](CCC(=O)O)C(=O)N[C@@H](Cc1c[nH]cn1)C(=O)N[C@@H](CCCCN)C(=O)N[C@H](C(=O)N[C@H](C(=O)N[C@@H](CC(=O)O)C(=O)O)[C@@H](C)O)[C@@H](C)CC)[C@@H](C)CC) [Compound 20]
0.066	0.23	HXEGTFTSELATILDXQAARDFIAWLIQHKITD (HELM PEPTIDE1{H.[Aib].E.G.T.F.T.S.E.L.A.T.I.L.D.K.Q.A.A.R.D.F.I.A.W.L.I.Q.H.K.I.T.D}|PEPTIDE2{[O=C(O)CCCCCCCCCCCCCCCCC(=O)[*:2]].[gGlu]}$PEPTIDE1,PEPTIDE2,16:R3-2:R2$$$V2.0; SMILES CC[C@H](C)[C@H](NC(=O)[C@H](Cc1ccccc1)NC(=O)[C@H](CC(=O)O)NC(=O)[C@H](CCCNC(=N)N)NC(=O)[C@H](C)NC(=O)[C@H](C)NC(=O)[C@H](CCC(N)=O)NC(=O)[C@H](CCCCNC(=O)CC[C@H](NC(=O)CCCCCCCCCCCCCCCCC(=O)O)C(=O)O)NC(=O)[C@H](CC(=O)O)NC(=O)[C@H](CC(C)C)NC(=O)[C@@H](NC(=O)[C@@H](NC(=O)[C@H](C)NC(=O)[C@H](CC(C)C)NC(=O)[C@H](CCC(=O)O)NC(=O)[C@H](CO)NC(=O)[C@@H](NC(=O)[C@H](Cc1ccccc1)NC(=O)[C@@H](NC(=O)CNC(=O)[C@H](CCC(=O)O)NC(=O)C(C)(C)NC(=O)[C@@H](N)Cc1c[nH]cn1)[C@@H](C)O)[C@@H](C)O)[C@@H](C)O)[C@@H](C)CC)C(=O)N[C@@H](C)C(=O)N[C@@H](Cc1c[nH]c2ccccc12)C(=O)N[C@@H](CC(C)C)C(=O)N[C@H](C(=O)N[C@@H](CCC(N)=O)C(=O)N[C@@H](Cc1c[nH]cn1)C(=O)N[C@@H](CCCCN)C(=O)N[C@H](C(=O)N[C@H](C(=O)N[C@@H](CC(=O)O)C(=O)O)[C@@H](C)O)[C@@H](C)CC)[C@@H](C)CC) [Compound 19]

More lines, now with the values behind:

Binder	EC50 GLP-1 (nM); cAMP response [1] [nM]	EC50 GLP-2 (nM); cAMP response [2] [nM]
HXEGTFTSELATILDXLAARDFIAWLIAHKITD (HELM PEPTIDE1{H.[Aib].E.G.T.F.T.S.E.L.A.T.I.L.D.K.L.A.A.R.D.F.I.A.W.L.I.A.H.K.I.T.D}|PEPTIDE2{[O=C(O)CCCCCCCCCCCCCCCCC(=O)[*:2]].[gGlu]}$PEPTIDE1,PEPTIDE2,16:R3-2:R2$$$V2.0; SMILES CC[C@H](C)[C@H](NC(=O)[C@H](CC(C)C)NC(=O)[C@H](Cc1c[nH]c2ccccc12)NC(=O)[C@H](C)NC(=O)[C@@H](NC(=O)[C@H](Cc1ccccc1)NC(=O)[C@H](CC(=O)O)NC(=O)[C@H](CCCNC(=N)N)NC(=O)[C@H](C)NC(=O)[C@H](C)NC(=O)[C@H](CC(C)C)NC(=O)[C@H](CCCCNC(=O)CC[C@H](NC(=O)CCCCCCCCCCCCCCCCC(=O)O)C(=O)O)NC(=O)[C@H](CC(=O)O)NC(=O)[C@H](CC(C)C)NC(=O)[C@@H](NC(=O)[C@@H](NC(=O)[C@H](C)NC(=O)[C@H](CC(C)C)NC(=O)[C@H](CCC(=O)O)NC(=O)[C@H](CO)NC(=O)[C@@H](NC(=O)[C@H](Cc1ccccc1)NC(=O)[C@@H](NC(=O)CNC(=O)[C@H](CCC(=O)O)NC(=O)C(C)(C)NC(=O)[C@@H](N)Cc1c[nH]cn1)[C@@H](C)O)[C@@H](C)O)[C@@H](C)O)[C@@H](C)CC)[C@@H](C)CC)C(=O)N[C@@H](C)C(=O)N[C@@H](Cc1c[nH]cn1)C(=O)N[C@@H](CCCCN)C(=O)N[C@H](C(=O)N[C@H](C(=O)N[C@@H](CC(=O)O)C(=O)O)[C@@H](C)O)[C@@H](C)CC) [Compound 15]	0.25	0.16
HXEGTFTSELATILDXEAARLFIAWLIEHKITD (HELM PEPTIDE1{H.[Aib].E.G.T.F.T.S.E.L.A.T.I.L.D.K.E.A.A.R.L.F.I.A.W.L.I.E.H.K.I.T.D}|PEPTIDE2{[O=C(O)CCCCCCCCCCCCCCCCC(=O)[*:2]].[gGlu]}$PEPTIDE1,PEPTIDE2,16:R3-2:R2$$$V2.0; SMILES CC[C@H](C)[C@H](NC(=O)[C@H](Cc1ccccc1)NC(=O)[C@H](CC(C)C)NC(=O)[C@H](CCCNC(=N)N)NC(=O)[C@H](C)NC(=O)[C@H](C)NC(=O)[C@H](CCC(=O)O)NC(=O)[C@H](CCCCNC(=O)CC[C@H](NC(=O)CCCCCCCCCCCCCCCCC(=O)O)C(=O)O)NC(=O)[C@H](CC(=O)O)NC(=O)[C@H](CC(C)C)NC(=O)[C@@H](NC(=O)[C@@H](NC(=O)[C@H](C)NC(=O)[C@H](CC(C)C)NC(=O)[C@H](CCC(=O)O)NC(=O)[C@H](CO)NC(=O)[C@@H](NC(=O)[C@H](Cc1ccccc1)NC(=O)[C@@H](NC(=O)CNC(=O)[C@H](CCC(=O)O)NC(=O)C(C)(C)NC(=O)[C@@H](N)Cc1c[nH]cn1)[C@@H](C)O)[C@@H](C)O)[C@@H](C)O)[C@@H](C)CC)C(=O)N[C@@H](C)C(=O)N[C@@H](Cc1c[nH]c2ccccc12)C(=O)N[C@@H](CC(C)C)C(=O)N[C@H](C(=O)N[C@@H](CCC(=O)O)C(=O)N[C@@H](Cc1c[nH]cn1)C(=O)N[C@@H](CCCCN)C(=O)N[C@H](C(=O)N[C@H](C(=O)N[C@@H](CC(=O)O)C(=O)O)[C@@H](C)O)[C@@H](C)CC)[C@@H](C)CC) [Compound 16]	0.073	0.68
HXEGTFSSELATILDXQAARDFIAWLIQHKITD (HELM PEPTIDE1{H.[Aib].E.G.T.F.S.S.E.L.A.T.I.L.D.K.Q.A.A.R.D.F.I.A.W.L.I.Q.H.K.I.T.D}|PEPTIDE2{[O=C(O)CCCCCCCCCCCCCCCCC(=O)[*:2]].[gGlu]}$PEPTIDE1,PEPTIDE2,16:R3-2:R2$$$V2.0; SMILES CC[C@H](C)[C@H](NC(=O)[C@H](Cc1ccccc1)NC(=O)[C@H](CC(=O)O)NC(=O)[C@H](CCCNC(=N)N)NC(=O)[C@H](C)NC(=O)[C@H](C)NC(=O)[C@H](CCC(N)=O)NC(=O)[C@H](CCCCNC(=O)CC[C@H](NC(=O)CCCCCCCCCCCCCCCCC(=O)O)C(=O)O)NC(=O)[C@H](CC(=O)O)NC(=O)[C@H](CC(C)C)NC(=O)[C@@H](NC(=O)[C@@H](NC(=O)[C@H](C)NC(=O)[C@H](CC(C)C)NC(=O)[C@H](CCC(=O)O)NC(=O)[C@H](CO)NC(=O)[C@H](CO)NC(=O)[C@H](Cc1ccccc1)NC(=O)[C@@H](NC(=O)CNC(=O)[C@H](CCC(=O)O)NC(=O)C(C)(C)NC(=O)[C@@H](N)Cc1c[nH]cn1)[C@@H](C)O)[C@@H](C)O)[C@@H](C)CC)C(=O)N[C@@H](C)C(=O)N[C@@H](Cc1c[nH]c2ccccc12)C(=O)N[C@@H](CC(C)C)C(=O)N[C@H](C(=O)N[C@@H](CCC(N)=O)C(=O)N[C@@H](Cc1c[nH]cn1)C(=O)N[C@@H](CCCCN)C(=O)N[C@H](C(=O)N[C@H](C(=O)N[C@@H](CC(=O)O)C(=O)O)[C@@H](C)O)[C@@H](C)CC)[C@@H](C)CC) [Compound 17]	0.9	0.33
